According to patent publication US20210079037A1 (TECHNISCHE UNIVERSIT T M NCHEN, published 2021):

How the values were obtained:
[1] = target: T1, mouse anti-6×His antibody alkaline phosphatase (AP) conjugate (Arigo Biolaboratories); assay: ELISA: ProtL-ABD in a dilution series captured on coated HSA, mouse anti-6xHis Ig-AP conjugate (1:1000) applied, kept in daylight, AP activity as dA/dt [left graph]
T1 construct: also called mouse anti-6×His Ig-AP conjugate; Ig-AP conjugate
Protocol: (§1) ELISA was performed at ambient temperature in a 96-well Maxisorb microtiter plate (Nunc, Langenselbold, Germany).
(§2) Then, the wells were blocked with […] Roti-Block (Carl Roth, Karlsruhe, Germany) diluted 1:10 in ddH₂O for 1 h and washed three times with PBS containing 0.1% v/v Tween 20 (PBS/T). After that, the purified ProtL^Caf-ABD fusion protein from Example 11 was applied in a dilution series in PBS/T and incubated for 1 h to effect complex formation between the ABD moiety and the pre-adsorbed HSA. The wells were then washed three times with PBS/T and incubated with 50 μl of a 1:1000 dilution in PBS/T of the aforementioned mouse anti-6×His Ig-AP conjugate.

[2] = target: T2, recombinant human serum albumin (HSA) produced in rice (Sigma-Aldrich) (human, UniProt P02768 25-609); assay: ELISA, capture of the ABD fusion on HSA-coated plate
T2 construct: also called recombinant HSA
T2 sequence (P02768 25-609 limits assumed): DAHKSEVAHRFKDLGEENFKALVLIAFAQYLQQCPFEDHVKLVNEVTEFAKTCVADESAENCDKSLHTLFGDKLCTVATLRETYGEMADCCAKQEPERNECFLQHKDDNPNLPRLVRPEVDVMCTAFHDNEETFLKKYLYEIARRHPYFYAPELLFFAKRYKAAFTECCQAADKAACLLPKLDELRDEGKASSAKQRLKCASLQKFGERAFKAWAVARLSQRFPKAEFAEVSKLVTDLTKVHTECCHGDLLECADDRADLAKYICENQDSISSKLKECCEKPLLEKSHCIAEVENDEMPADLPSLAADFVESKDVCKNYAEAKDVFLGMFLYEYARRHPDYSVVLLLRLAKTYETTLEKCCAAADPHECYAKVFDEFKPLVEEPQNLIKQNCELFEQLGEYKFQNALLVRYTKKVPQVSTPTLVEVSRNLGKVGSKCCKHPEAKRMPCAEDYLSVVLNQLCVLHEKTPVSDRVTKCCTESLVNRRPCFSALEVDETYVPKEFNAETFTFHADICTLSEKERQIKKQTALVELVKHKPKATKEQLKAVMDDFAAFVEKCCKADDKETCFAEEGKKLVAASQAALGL
Protocol: as §1, §2

[3] = target: T1, mouse anti-6×His antibody alkaline …; assay: ELISA: ProtL-ABD in a dilution series captured on coated HSA, mouse anti-6xHis Ig-AP conjugate (1:1000) applied, UV light of 365 nm for 5 min before the washes, AP activity as dA/dt [left graph]
Protocol: as §1, §2

EC50 (read off the curve) [1]: ~40 nM
binding result [2]: binds
EC50 (read off the curve) [3]: ~40 nM
B1: ProtL-ABD fusion protein (other)
chain: MKEEVTIKVNLIFADGKTQTAEFKGTFEEATAKAYAYADLLAKENGEYTADLEDGGNTINIKFAGGAVDANSLAEAKVLANRELDKYGVSDYYKNLINNAKTVEGVKALIDEILAALP
notes: also called protein L-ABD fusion protein; unmodified ProtL-ABD
